Source: the supplement of paper PMC10899765

Legend:
Conditions in all cases: 20 nM; 72 h
MCF10A [1] = assay: 5+ nucleoli phenotype percent effect (relative to siNT 0% and siKIF11 100%); higher = more cells with five or more nucleoli
Description: (§1)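 After 72 h, cells were fixed and stained with Hoechst and anti-fibrillarin, and nucleoli per nucleus were counted with CellProfiler. Values are plate-adjusted percent effect for the one-nucleolus and 5+ nucleoli phenotypes, normalised to siNT (0%) and to the positive controls siNOL11 or siKIF11 (100%), as the mean of biological triplicates. Percent viability is the nuclei count relative to siNT.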

MCF10A [2] = assay: percent viability (nuclei count relative to siNT); higher = more viable cells
Description: as §1

MCF10A [3] = assay: one-nucleolus phenotype percent effect (relative to siNT 0% and siNOL11 100%); higher = more cells with one nucleolus (ribosome biogenesis inhibition)
Description: as §1

Sequence | 5+ nucleoli phenotype percent effect (MCF10A [1]) [%] | percent viability (MCF10A [2]) [%] | one-nucleolus phenotype percent effect (MCF10A [3]) [%]
AGUGCCUGAGGGAGUAAGAG [hsa-miR-550a-3-5p] | -17.5 | 79.3 | 3.47
UAAAACCCACAAUUAUGUUUGU [hsa-miR-548as-3p] | -6.8 | 149 | 25.3
UACAGAUGCAGAUUCUCUGACUUC [hsa-miR-5683] | 8.12 | 40.9 | 15.3
UCUCUGAGUACCAUAUGCCUUGU [hsa-miR-3921] | -6.05 | 59.6 | -20.1
ACUCGGCUGCGGUGGACAAGU [hsa-miR-4638-5p] | -4.89 | 39.5 | 3.97
UCAGCUGGCCCUCAUUUC [hsa-miR-1207-3p] | -48.5 | 15.3 | 65
CCUGUCUGUGCCUGCUGUACA [hsa-miR-3120-5p] | 4.71 | 127 | -1.5
UGGACGGAGAACUGAUAAGGGU [hsa-miR-184] | 80.3 | 43 | -17.7
AACUGGAUCAAUUAUAGGAGUG [hsa-miR-1243] | 53.3 | 174 | -29.3
AUUGGACUGCUGAUGGCCCGU [hsa-miR-4529-3p] | -12.1 | 48.3 | 19.5
AGAAUUGUGGCUGGACAUCUGU [hsa-miR-219-2-3p] | -41.8 | 33.5 | 35.6
CACUGUUUCACCACUGGCUCUU [hsa-miR-4676-3p] | 18.4 | 49.2 | -8.83
UUCCUAUGCAUAUACUUCUUUG [hsa-miR-202-5p] | 12.8 | 72.7 | -12.4
UAGGAGGGAAUAGUAAAAGCAG [hsa-miR-4779] | -25.8 | 15 | 54.7
AUGAAGUGCACUCAUGAUAUGU [hsa-miR-3616-5p] | -38.4 | 27.9 | 32.7
UUGAAGGGACAAGUCAGAUAUGCC [hsa-miR-6864-5p] | -1.47 | 25.6 | 17.8
AGGUGGUCCGUGGCGCGUUCGC [hsa-miR-323a-5p] | -21.1 | 19.8 | 36.4
GUGCAUGGCUGUAUAUAUAACA [hsa-miR-5011-3p] | 19.5 | 56.9 | 0.75
CCGGUUCCAGUCCCUGGAG [hsa-miR-6070] | -6.27 | 55.6 | 16.9
UUUUGCAUGACCCUGGGAGUAGG [hsa-miR-3680-3p] | -18.3 | 51 | 11.5

Sequence | 5+ nucleoli phenotype percent effect (MCF10A [1]) [%] | percent viability (MCF10A [2]) [%] | one-nucleolus phenotype percent effect (MCF10A [3]) [%]
CGGCUCUGGGUCUGUGGGGA [hsa-miR-760] | -2.61 | 53 | 7.07
AAGCUUUUUGCUCGAAUUAUGU [hsa-miR-208b-5p] | -1.23 | 108 | -24.2
AACACUGGCCUUGCUAUCCCCA [hsa-miR-6757-3p] | -35 | 52.1 | 30.1
AUCAUAGAGGAAAAUCCAUGUU [hsa-miR-376b-3p] | 52.2 | 144 | -20.4
UACCCAUUGCAUAUCGGAGUUG [hsa-miR-660-5p] | -38.8 | 30 | 44.9
GAAAGCGCUUCUCUUUAGAGG [hsa-miR-518f-3p] | -8.13 | 63.6 | 17.1
GGGCGACAAAGCAAGACUCUUUCUU [hsa-miR-1273a] | -17.3 | 78.8 | 6.41
UAAGUGCUUCCAUGUUUUAGUAG [hsa-miR-302b-3p] | 33.7 | 74.9 | -12.2
CCUGGGCAGCGUGUGGCUGAAGG [hsa-miR-3187-5p] | 41.1 | 66.4 | -3.44
CGGGUGGAUCACGAUGCAAUUU [hsa-miR-363-5p] | 161 | 4.57 | -21.2
GUGAAAUGUUUAGGACCACUAG [hsa-miR-203a] | 3.03 | 40.9 | 10.2
UCAAGUAGUUUCAUGAUAAAGG [hsa-miR-5697] | 12.5 | 118 | -14.6
UGGGUGGAAGAAGGUCUGGUU [hsa-miR-6745] | -9.03 | 6.73 | 17.1
UCCUUCUGCUCCGUCCCCCAG [hsa-miR-1237-3p] | 6.7 | 52.7 | -0.823
ACCUUCUUGUAUAAGCACUGUGCUAAA [hsa-miR-1248] | 33.1 | 96.5 | -15.4
UGACUGAGCUUCUCCCCACAG [hsa-miR-6857-3p] | -17.1 | 34.9 | 32.8
UUGAUCUCGGAAGCUAAGC [hsa-miR-7641] | 6.46 | 82.6 | -20.1
CCAGUUACCGCUUCCGCUACCGC [hsa-miR-935] | -23.4 | 59 | 15.8
UUGCCAGGGCAGGAGGUGGAA [hsa-miR-5006-5p] | -13.7 | 69.9 | 0.389
UGCUUCCUUUCAGAGGGU [hsa-miR-516a-3p] | -23 | 100 | -10.2

Sequence | 5+ nucleoli phenotype percent effect (MCF10A [1]) [%] | percent viability (MCF10A [2]) [%] | one-nucleolus phenotype percent effect (MCF10A [3]) [%]
UCCCUUGUCUCCUUUCCCUAG [hsa-miR-6780b-3p] | 32.5 | 68.9 | -21.9
UGGAUUUCUUUGUGAAUCACCA [hsa-miR-876-5p] | 24.8 | 143 | -21.7
ACUGGGUAGGUGGGGCUCCAGG [hsa-miR-6861-5p] | -15.5 | 31.9 | 6.88
CAUGGGGUAGGGCAGAGUAGG [hsa-miR-6890-5p] | -15.7 | 43.6 | 21.6
GAACGCGCUUCCCUAUAGAGGGU [hsa-miR-523-3p] | 23.3 | 119 | -18.2
UCAAAAUGUAGAGGAAGACCCCA [hsa-miR-4698] | 21.6 | 127 | -18.4
AGACCAUGGGUUCUCAUUGU [hsa-miR-591] | 10.2 | 84.8 | -3.76
CGGGCGUGGUGGUGGGGGUG [hsa-miR-1268b] | 35.6 | 36.5 | 8.5
UAGGUUAUCCGUGUUGCCUUCG [hsa-miR-154-5p] | -28.7 | 32.9 | 34.9
UGAGGCGGGGGGGCGAGC [hsa-miR-6087] | -13.4 | 53.3 | 15.3
UCAGGGUUGGUAGGGGUUGCU [hsa-miR-6823-5p] | -11.9 | 22.1 | 19.8
AGCCAGGCUCUGAAGGGAAAGU [hsa-miR-4755-3p] | 3.33 | 59.3 | 7.85
CAAAGUGCUCAUAGUGCAGGUAG [hsa-miR-20b-5p] | 9.26 | 58.4 | -12
AGAAGUAAUUGCGGUUUUGCCA [hsa-miR-548ax] | -15.7 | 53.4 | 4.38
GCUGCACCGGAGACUGGGUAA [hsa-miR-3130-3p] | 26.7 | 65 | -5.32
UGGUCAGAGGCAGCAGGAAAUGA [hsa-miR-6801-5p] | 27.3 | 54.5 | -5.6
AACAUCACAGCAAGUCUGUGCU [hsa-miR-499a-3p] | -38.3 | 49.3 | -7.15
AAAGUCUCGCUCUCUGCCCCUCA [hsa-miR-3184-3p] | 41.1 | 172 | -19.6
AGGAUUUCAGAAAUACUGGUGU [hsa-miR-3167] | -10.4 | 49.1 | -14.6
